In the RNAGym collection of RNA variant scans (doi:10.7554/elife.90254):

B1: LINE1-full (parent)
chain: UACGUAGGUGGUUUUCCCCUGAUAGUGCUAAGGGGGCCUGGAAGUUUGGACUGGGCAGAGCUCAACACAGCGUGGCAAAGUGGCUGUGGCUAGACUGCCUCUCUGGAUUCCUCGUCACUCAGCAGGGCAUCUCUGAGAGAAAUGCC

Variants of: B1
Assay: self-cleavage, relative activity (ratio to wild type); higher = more cleavage; in vitro, sequencing; the parent is a self-cleaving ribozyme

Variant	self-cleavage
A2G U15A	1
A2U C111A	0.68
C3A U73A	0.64
U1C A77G	1.32
U1A U112C	1.03
A2U U132C	1.09
C3U G60U	0.07
U1C A138G	0.7
A2G A140C	0.51
U1C U45A	0.84
C3U C113A	1.15
A2U G127C	1.16
A2U U100C	0.95
A2U U100A	0.66
U1C U26A	0.53
U1C A94G	0.24
U1G U132C	1.36
C3A A78G	0.64
A2U U143C	1.28
A2U A50G	0.53
U1C G86A	0.06
A2G G35A	1.2
U1C G70A	0.04
A2G U85C	0.48

Variant	self-cleavage
A2G G36U	0.67
C3U A65G	0.17
U1C G34A	0.75
C3A G55C	0.07
A2G U96A	0.22
A2G U45C	1.19
A2G C3U	0.65
A2G G74A	0.69
A2G U46C	0.72
A2G U46A	0.3
G4A A124U	0.53
C3U U119C	1.14
C3U A121U	1.41
C3U U134C	1.05
G4A A43G	0.67
U1C A142G	0.99
C3G U132A	0.24
C3A U112C	1.48
C3U A42G	1.22
A2G G114A	0.82
A2G U132C	1.04
U1G A64G	0.46
A2U C16U	0.32
C3U U100A	0.68

Variant	self-cleavage
A2U G11A	0.92
A2G U81A	0.74
A2G A43G	0.87
A2G A94U	0.29
A2G A94G	0.25
C3A G122A	1.51
C3U U143G	0
C3U U143A	0.41
C3U G41A	2.76
C3U A59G	0.1
C3U U62C	0.15
A2G G144A	0.86
C3A G70A	0.08
U1G A138G	1.57
U1C U39C	0.95
A2G A67G	0.41
A2G A67U	0.18
A2G A141U	0.24
C3U A22U	0.99
C3U A22G	0.95
U1C A69G	0.42
U1C A69C	0.07
U1C A69U	0.04
U1G C37G	0.49

Variant	self-cleavage
C3A U45G	0.45
A2U A57C	0.16
A2U A57G	0.6
A2G G32A	0
U1C A129G	1.38
A2C A140G	1.28
C3A A140U	0.9
U1G G80A	0.75
A2G C71G	0.42
C3A A142G	0.82
A2G U100C	0.62
C3U U109A	0.93
U1C C128A	0.79
U1C U87C	0.1
U1C U62A	0.05
U1C U62C	0.12
A2C U73A	1.29
C3A U104A	0.7
A2G A77U	0.79
A2G C37G	0.87
U1A U102A	0.48
A2G A24U	1.34
C3U G58U	0
U1C G93A	0.09

Variant	self-cleavage
A2U A30G	1.2
U1A U108C	0.77
C3U A94G	0.54
A2G A59U	0.8
A2G A107G	0.94
A2C G4U	1.34
A2U G97A	0.08
C3A A121G	0.53
A2G G34C	0.75
U1C A136U	1.15
U1C U91C	0.39
C3U U9C	1.53
A2G A136U	0.77
C3U A136G	1.08
U1C A140G	0.99
C3U U20C	0.44
A2G A30G	0.87
U1C A22U	0.54
U1C A22G	0.84
C3A U87A	0.1
U1C G114C	2.19
G4A A140C	0.27
G4A A140G	0.76
A2U U102C	2.12

Variant	self-cleavage
A2G G75A	0.7
A2G U130A	1.72
A2G U12C	0.96
A2U U96C	0.31
U1A U96G	0
A2G A138U	0.69
A2G A138G	0.98
A2G U108C	0.94
A2G U108A	1.02
C3U U115A	0.72
C3U U115C	1.03
U1C C37G	0.73
A2U A77G	1.77
U1C U119A	1.47
A2G U115A	1.08
A2G U39C	0.32
A2G U87C	0.35
U1C C99U	0.24
A2C U85G	0.16
U1C G35A	0.67
U1C G35C	1.26
A2U U46A	0.51
A2G U102G	0
A2G A79G	0.87

Variant	self-cleavage
G4A A107U	0.2
A2G A129U	0.62
A2C U119C	0.89
A2C U14A	1.16
A2G A6U	0.53
G4A A77G	1.68
U1C A121U	1.06
U1C A121G	0.79
U1C A31C	1.33
U1C A124G	0.75
A2U U12C	0.64
G4A A24G	0.75
A2G U134G	1.21
A2G U134C	1.35
C3U U108C	1.26
U1C U52A	0.88
C3U A69U	0.13
C3U A30G	1.75
A2G G72A	1.15
A2G G72U	0.53
U1C A67G	0.41
U1A U134C	0.47
A2U U47C	0.43
